Test results from the supplement of paper PMC10724198.
± gives the standard deviation of the averaged measurements.

Tested on: Saccharomyces cerevisiae
Test: protein stability index of tFT-peptide fusion (C-terminal peptide) (PSI (0-1 scale)); higher = more stable (slower turnover)
Conditions: genetic background: wild type; temperature: 30 C
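Further: PSI is a weighted mean of sequencing reads over stability bins, variants kept only with over 10 reads, mCherry proximal and sfGFP distal, peptide attached via GGGS linker.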

In order of falling protein stability index:
1. TGCGSRSSRTKT  0.864 ± 0.021
2. SSLSPTPPPSFP  0.84 ± 0.2
3. SRSPPVLTRHKL  0.824 ± 0.058
4. TGISPWPPSERR  0.808 ± 0.19
5. SSSFFLFPVGFF  0.784 ± 0.14
6. SYKAFVFSSDVW  0.77 ± 0.045
7. SYDNPPDTSRPR  0.768 ± 0.046
8. SRWLLSLFTSSF  0.762 ± 0.052
9. TLPRSLGPSSPA  0.753 ± 0.076
10. TLGLDPCCSYSR  0.752 ± 0.15
11. SRHPSFPLPMPL  0.746 ± 0.086
12. THHPQRPPRTLP  0.745 ± 0.062
13. SSLSPLLYRPLF  0.742 ± 0.047
14. TELSLHFAGYAE  0.74 ± 0.031
15. SSFPPAPHAPHD  0.739 ± 0.03
16. SSRCLPPFPLCP  0.736 ± 0.11
17. SYLHALSRPSLL  0.734 ± 0.03
18. SQGLWRGVALTG  0.7325 ± 0.0017
19. STPSMGSMTRLE  0.731 ± 0.041
20. TLPVKAGHWRLG  0.73084 ± 0.00065
21. TEIKILNKKKSR  0.7294 ± 0.0043
22. SPTPPPTSPSRP  0.728 ± 0.11
23. SRKNGLQRKQKT  0.7277 ± 0.0055
24. SVLRWAVLGQTR  0.728 ± 0.18
25. SRHPPPPVSPHP  0.727 ± 0.064
26. SWPPCPSGRGRG  0.727 ± 0.029
27. TFPPLSPSPPLS  0.727 ± 0.13
28. THPPLPPYLSPP  0.727 ± 0.015
29. SRESTPDSHTMS  0.726 ± 0.065
30. TFPGRLPLTRLP  0.726 ± 0.038
31. STPVEATQDVAR  0.724 ± 0.0083
32. SQKWKGSSVIIG  0.723 ± 0.032
33. SQRPPPLCDFTD  0.723 ± 0.013
34. SVSRGSWVWGRL  0.723 ± 0.061
35. TISFASLLPPPF  0.723 ± 0.048
36. SRDRRASPPLPP  0.722 ± 0.049
37. TLSPFRLFGPIS  0.722 ± 0.092
38. SVFERDWTGGEV  0.7184 ± 0.00085
39. SWPMLSVLADER  0.717 ± 0.04
40. TGSLSSTCPPAT  0.717 ± 0.075
41. SRGGGWSEGGEG  0.716 ± 0.028
42. SWPLIFSLPNFI  0.716 ± 0.026
43. SYPDYFDSDSSD  0.716 ± 0.011
44. TNVRMGCELEEK  0.716 ± 0.14
45. TAQKHQQPVQLH  0.715 ± 0.028
46. SPTDSDINIPRV  0.714 ± 0.05
47. SRYRPTGAHYGH  0.714 ± 0.064
48. SRGLPAPASRYC  0.713 ± 0.015
49. TAVPRARRRVVR  0.712 ± 0.018
50. SPSSLPPTLPTL  0.711 ± 0.021
51. SSKGGWSGGGSV  0.71 ± 0.025
52. SRHRAVRAGENW  0.708 ± 0.045
53. SSPSYVPVSYSQ  0.708 ± 0.066
54. STPSPPPAPRSP  0.708 ± 0.015
55. SSVVPITLPAFL  0.707 ± 0.019
56. SVGFVGVGCRGR  0.707 ± 0.025
57. SQHTNTKTKLKK  0.706 ± 0.043
58. SYGPKMAKAVFR  0.706 ± 0.056
59. SSPAPPPLLLPS  0.7047 ± 0.00088
60. SSPPRPLPPHHT  0.705 ± 0.059
61. SRDSRSSRRAGA  0.702 ± 0.065
62. SSRRYSGLSFTS  0.702 ± 0.015
63. SSPSFPSPLPPY  0.701 ± 0.074
64. SRSGLSPTLPVF  0.699 ± 0.016
65. SSLRPSRPPPAS  0.6988 ± 0.0057
66. TFENLFRLPWFK  0.699 ± 0.052
67. TGRGGAPRAKEE  0.699 ± 0.0039
68. SRGGGEGTVGKK  0.697 ± 0.022
69. THHSDLHPRTAP  0.697 ± 0.033
70. SSGNSVDCFGHQ  0.6959 ± 0.0057
71. TGNQCGNGYSWR  0.696 ± 0.013
72. TGCRAVPDLNAD  0.695 ± 0.018
73. SRPATGSVTFPP  0.694 ± 0.0098
74. STALVFSDSALL  0.694 ± 0.061
75. SSFRASVRSRKT  0.692 ± 0.022
76. TEVRHMKGVAWW  0.6919 ± 0.0044
77. TGNARCYFGKSV  0.692 ± 0.011
78. TGPIIPSDNRFL  0.692 ± 0.04
79. SVLSVAIRAPTQ  0.691 ± 0.093
80. SVTTNDQLPCHS  0.691 ± 0.026
81. TFYLHSLLPTSF  0.6913 ± 0.0024
82. SPSPPPRTPPPL  0.689 ± 0.022
83. SSAGEVAFVAGT  0.689 ± 0.089
84. THLDKLYPKEHT  0.689 ± 0.054
85. SPSPPPPPPPPL  0.6877 ± 0.0022
86. SRSGPGEIVTTG  0.688 ± 0.041
87. SSPPPHPPPVPR  0.688 ± 0.1
88. SVLVLPVLFLED  0.6884 ± 0.004
89. SVSRGAPSGSLG  0.688 ± 0.067
90. TNLYGWGGERTV  0.688 ± 0.0092
91. SSVFRSYTSVLS  0.686 ± 0.076
92. SPTGTPIIPSYP  0.684 ± 0.0098
93. SSPLVHWFSYLS  0.682 ± 0.023
94. STVGSKLCWESS  0.682 ± 0.072
95. TDLGYGRLGGWV  0.682 ± 0.083
96. TKNNYKKKKTKT  0.682 ± 0.029
97. TMEKKAKKRIKK  0.682 ± 0.23
98. STEFCRIIYRGP  0.681 ± 0.023
99. SYLPLGTVLMLG  0.681 ± 0.032
100. SRISSCSLVRPP  0.679 ± 0.032
101. SSTCSPPRLSQS  0.679 ± 0.046
102. STQGAFHFLVSL  0.679 ± 0.015
103. SYTAPPLLRSSY  0.679 ± 0.015
104. TLSPAPSPTPPP  0.678 ± 0.048
105. SPSNPSLRLSSP  0.676 ± 0.023
106. SSVEREEEGGGG  0.676 ± 0.11
107. STLAPRVYLRLR  0.676 ± 0.032
108. TASAAKGAAPQQ  0.676 ± 0.016
109. TETAHNFPYCCD  0.676 ± 0.025
110. SRPPHPSPPRTF  0.675 ± 0.03
111. SVPGLELGLPLR  0.675 ± 0.061
112. SRFHVLLPPPPS  0.674 ± 0.035
113. SSRAPSLPPPPP  0.674 ± 0.025
114. TASLQGCANGQS  0.674 ± 0.012
115. TERGRLVWYCMR  0.674 ± 0.077
116. SSSPLPPPSPPP  0.673 ± 0.032
117. SRVVAGLWRGAV  0.671 ± 0.18
118. SSSPTPLPRSLP  0.671 ± 0.024
119. TPAIPTTLMSLR  0.67 ± 0.063
120. SRAGAVLSGIES  0.669 ± 0.013
121. SSSHRPTAPSSR  0.669 ± 0.05
122. TNYWDRGSIQPK  0.668 ± 0.021
123. SRLSPSPLPPFL  0.667 ± 0.023
124. SVRCPPLSPRPP  0.667 ± 0.036
125. TGIGPWVSPSIC  0.667 ± 0.018
126. TLSTSPPPCHPL  0.667 ± 0.06
127. SRFSRAVSVARV  0.666 ± 0.023
128. SRRNRIYSHTSS  0.666 ± 0.025
129. SVGPWVSSGGFR  0.6664 ± 0.0048
130. TKKKPGEPGKRK  0.666 ± 0.013
131. STRFVRNEFGVS  0.665 ± 0.035
132. SSSWILCRFGRS  0.664 ± 0.041
133. SVGGVGGAVGGG  0.663 ± 0.014
134. TLSSPPPPPPPP  0.663 ± 0.046
135. TMCRGGVSSQDL  0.662 ± 0.057
136. SSLAPLLYLDTP  0.661 ± 0.084
137. SQLGRPSLHPVR  0.6601 ± 0.0024
138. SRPPSSQSNDEL  0.66 ± 0.078
139. TISHPLGPFSVH  0.66 ± 0.042
140. SSHPMNQVIKDR  0.659 ± 0.13
141. STVFAICQVLPI  0.6592 ± 0.0021
142. SWCRCLALLDCT  0.659 ± 0.028
143. TLLCGDASVLTA  0.658 ± 0.071
144. STICQRSTSGKG  0.657 ± 0.031
145. TFSVPLPPPLAP  0.6573 ± 0.0038
146. TNKKKNRNKKAK  0.657 ± 0.073
147. SRLNRRKGNGRK  0.656 ± 0.083
148. SVETVSSSSVAD  0.656 ± 0.057
149. TKKDNKYNRNKK  0.656 ± 0.029
150. SWPTRRLVVHGL  0.655 ± 0.0071
151. SQTRIKPREETA  0.653 ± 0.031
152. SRSPLCRCAPSF  0.6534 ± 0.0043
153. SSFSAPPMPRSF  0.653 ± 0.028
154. SWGGGGGGAGRG  0.653 ± 0.017
155. TKLRHHKTQIVD  0.652 ± 0.059
156. SSHLILTVAPSA  0.6515 ± 0.0045
157. SYGADSVSYLKT  0.651 ± 0.033
158. TFLYLSGRVVGL  0.651 ± 0.013
159. SVMFSSLTRPPL  0.65 ± 0.11
160. SSRLALVLLPPG  0.649 ± 0.042
161. STPLLLSPPLFC  0.649 ± 0.04
162. SVVGHGVCGGRG  0.649 ± 0.11
163. SSVILPLRRWPP  0.648 ± 0.094
164. SVCEWSRVGIRL  0.6476 ± 0.0056
165. TIPSHPLLPTLC  0.648 ± 0.049
166. TLAPPSRATPPP  0.648 ± 0.041
167. SSSTPPVHVPIS  0.647 ± 0.083
168. SSRVLFRVSVLR  0.646 ± 0.09
169. SVPRPPPPRAPL  0.646 ± 0.17
170. SWRRRNGNCERR  0.646 ± 0.063
171. SVHAMDCNGYAN  0.643 ± 0.013
172. SPVSPPLVRPPY  0.642 ± 0.054
173. SQFLRPSAVAPS  0.642 ± 0.037
174. SRPALLLGSEAT  0.642 ± 0.031
175. SVYGIASRAQLL  0.64 ± 0.11
176. TKNTEGVKNSLF  0.64 ± 0.096
177. SSVGLRTRRTAR  0.638 ± 0.081
178. TARDLEGTRAKG  0.638 ± 0.028
179. THYKLFGSLNLL  0.634 ± 0.035
180. TFVVGTRVFSCD  0.631 ± 0.096
181. TCLMLSCRSFLW  0.63 ± 0.018
182. TLCITHARCFVK  0.63 ± 0.0069
183. SRRKMRILQIVD  0.623 ± 0.092
184. SSPLSSPLSTAP  0.622 ± 0.018
185. STDRPLRLHPGG  0.622 ± 0.041
186. TIVRTTLLEIWR  0.619 ± 0.04
187. SSPIFPDPSHVS  0.6058 ± 0.0054
188. SSSVSYFLHYCI  0.606 ± 0.038
189. SYKIDYIDIRVG  0.59 ± 0.029
190. SRNAFTLAARVY  0.589 ± 0.016
191. SSAPPPPPRPLP  0.588 ± 0.052
192. TASFVSSGLLAF  0.586 ± 0.012
193. SVRLTYQNIIVN  0.583 ± 0.02
194. SRQPPPRVFCVV  0.571 ± 0.035
195. SVGLTGHGTRGV  0.571
196. SYFVIPGLSLSV  0.568 ± 0.056
197. SYSPPPLPPHPP  0.55109 ± 0.00031
198. TDFRSGLIFIIV  0.544 ± 0.045
199. SRLLLPIGISRV  0.543 ± 0.16
200. SVVSSDVGGGRI  0.5391 ± 0.0047
201. TMHFVWVLGILE  0.524 ± 0.014
202. TGLYLRCVWGVQ  0.507 ± 0.046
